Measurements published in patent CN115232208A.

Biological target: 人可溶性BLyS (human soluble BLyS) (human) (UniProt Q9Y275)
Assay: cell-based or functional assay

## Benlysta (antibody)
  IC50 of inhibition of the NF-κB signal downstream of human BLyS binding TACI (luciferase reporter gene assay): 0.0517 mg/L
